From patent US9068994

Biological target: Thyroid Stimulating Hormone (TSH) (UniProt P01215)
Test: FRET competition, unlabelled Ab pre-bound to Alexa488 antigen; competitor: BHQ-labelled 5409

Point of comparison: “Seradyn anti-alpha-LH monoclonal antibody Cat#MIT0414B, clone BB3.1.3”, relative fluorescence (relative (same pair = 1.0)) 0.81. Against it:
- Fitzgerald Cat#10-T25C TSH mouse monoclonal antibody, clone M94206 — higher, 0.95
- TSH Ab 544 (Abbott Diagnostics Division) (antibody) — higher, 0.96

Biological target: Thyroid Stimulating Hormone (TSH) (UniProt P01215)
Test: i-STAT sandwich cartridge with TSH; row Ab on capture beads; detection conjugate: M4-ALP

Point of comparison: “TSH Ab 544 (Abbott Diagnostics Division) (antibody)”, electrochemical current (sandwich signal) 0.11 nA. Against it:
- Fitzgerald Cat#10-T25C TSH mouse monoclonal antibody, clone M94206 — higher, 40.9 nA
- Seradyn anti-alpha-LH monoclonal antibody Cat#MIT0414B, clone BB3.1.3 — higher, 41.3 nA

Biological target: Luteinizing Hormone (LH) (UniProt P01215)
Test: i-STAT sandwich cartridge, 0.4 mIU/L TSH plus LH; row Ab capture; detection Ab: TSH Ab 544

“Seradyn anti-alpha-LH monoclonal antibody Cat#MIT0414B, clone BB3.1.3” was tested, and the LH CR (%) (cross reactivity) was 467%.

Biological target: Follicle Stimulating Hormone (FSH) (UniProt P01215)
Test: i-STAT sandwich cartridge, 0.4 mIU/L TSH plus FSH; row Ab capture; detection Ab: 414B

Work on “TSH Ab 544 (Abbott Diagnostics Division) (antibody)” yielded an FSH CR (%) (cross reactivity) of 7.15%.

Biological target: Thyroid Stimulating Hormone (TSH) (UniProt P01215)
Test: i-STAT sandwich cartridge with TSH; row Ab on capture beads; detection conjugate: T25C-ALP

In the case of “TSH Ab 544 (Abbott Diagnostics Division) (antibody)”, the electrochemical current (sandwich signal) is reported as 22.4 nA.

Biological target: Luteinizing Hormone (LH) (UniProt P01215)
Test: FRET quenching titration, BHQ-10 antibody with Alexa Fluor 488 antigen, in solution

Point of comparison: “Seradyn anti-alpha-LH monoclonal antibody Cat#MIT0414B, clone BB3.1.3”, Kd 0.05 nM. Against it:
- Fitzgerald Cat#10-T25C TSH mouse monoclonal antibody, clone M94206 — 700-fold higher, 35 nM
- TSH Ab 544 (Abbott Diagnostics Division) (antibody) — 20000-fold higher, 1000 nM

Biological target: Thyroid Stimulating Hormone (TSH) (UniProt P01215)
Test: as above

Point of comparison: “Seradyn anti-alpha-LH monoclonal antibody Cat#MIT0414B, clone BB3.1.3”, Kd 0.04 nM. Against it:
- Fitzgerald Cat#10-T25C TSH mouse monoclonal antibody, clone M94206 — 2-fold higher, 0.08 nM
- TSH Ab 544 (Abbott Diagnostics Division) (antibody) — 33-fold higher, 1.31 nM

Biological target: Chorionic Gonadotropin (CG) (UniProt P01215)
Test: as above

Point of comparison: “Fitzgerald Cat#10-T25C TSH mouse monoclonal antibody, clone M94206”, Kd 40 nM. Against it:
- Seradyn anti-alpha-LH monoclonal antibody Cat#MIT0414B, clone BB3.1.3 — 800-fold lower, 0.05 nM
- TSH Ab 544 (Abbott Diagnostics Division) (antibody) — 5.2-fold higher, 210 nM

Biological target: Follicle Stimulating Hormone (FSH) (UniProt P01215)
Test: as above

Point of comparison: “Seradyn anti-alpha-LH monoclonal antibody Cat#MIT0414B, clone BB3.1.3”, Kd 0.1 nM. Against it:
- Fitzgerald Cat#10-T25C TSH mouse monoclonal antibody, clone M94206 — 3000-fold higher, 300 nM
- TSH Ab 544 (Abbott Diagnostics Division) (antibody) — 10000-fold higher, 1000 nM

Biological target: Thyroid Stimulating Hormone (TSH) (UniProt P01215)
Test: i-STAT sandwich cartridge with TSH; row Ab on capture beads; detection conjugate: ME130-ALP; note: test concentration or dose not given here

Point of comparison: “TSH Ab 544 (Abbott Diagnostics Division) (antibody)”, electrochemical current (sandwich signal) 34.9 nA. Against it:
- Fitzgerald Cat#10-T25C TSH mouse monoclonal antibody, clone M94206 — lower, 0.68 nA

Biological target: Chorionic Gonadotropin (CG) (UniProt P01215)
Test: i-STAT sandwich cartridge, 0.4 mIU/L TSH plus CG; row Ab capture; detection Ab: 5409

Point of comparison: “Seradyn anti-alpha-LH monoclonal antibody Cat#MIT0414B, clone BB3.1.3”, CG CR (%) (cross reactivity) 84.6%. Against it:
- Fitzgerald Cat#10-T25C TSH mouse monoclonal antibody, clone M94206 — lower, 13.7%

Biological target: Luteinizing Hormone (LH) (UniProt P01215)
Test: i-STAT sandwich cartridge, 0.4 mIU/L TSH plus LH; row Ab capture; detection Ab: 5409

Point of comparison: “Seradyn anti-alpha-LH monoclonal antibody Cat#MIT0414B, clone BB3.1.3”, LH CR (%) (cross reactivity) 348%. Against it:
- Fitzgerald Cat#10-T25C TSH mouse monoclonal antibody, clone M94206 — lower, 9.89%

Biological target: Chorionic Gonadotropin (CG) (UniProt P01215)
Test: i-STAT sandwich cartridge, 0.4 mIU/L TSH plus CG; row Ab capture; detection Ab: 414B

Substance “TSH Ab 544 (Abbott Diagnostics Division) (antibody)” has a CG CR (%) (cross reactivity) of 117%.

Biological target: Luteinizing Hormone (LH) (UniProt P01215)
Test: i-STAT sandwich cartridge, 0.4 mIU/L TSH plus LH; row Ab capture; detection Ab: 414B

Work on “TSH Ab 544 (Abbott Diagnostics Division) (antibody)” yielded an LH CR (%) (cross reactivity) of 11.8%.

Biological target: Chorionic Gonadotropin (CG) (UniProt P01215)
Test: i-STAT sandwich cartridge, 0.4 mIU/L TSH plus CG; row Ab capture; detection Ab: TSH Ab 544

For “Seradyn anti-alpha-LH monoclonal antibody Cat#MIT0414B, clone BB3.1.3”, the CG CR (%) (cross reactivity) was 39.2%.

Biological target: Thyroid Stimulating Hormone (TSH) (UniProt P01215)
Test: FRET competition, unlabelled Ab pre-bound to Alexa488 antigen; competitor: BHQ-labelled TSH Ab 544

Point of comparison: “Seradyn anti-alpha-LH monoclonal antibody Cat#MIT0414B, clone BB3.1.3”, relative fluorescence (relative (same pair = 1.0)) 0.83. Against it:
- Fitzgerald Cat#10-T25C TSH mouse monoclonal antibody, clone M94206 — higher, 0.97
- TSH Ab 544 (Abbott Diagnostics Division) (antibody) — higher, 1

Biological target: Thyroid Stimulating Hormone (TSH) (UniProt P01215)
Test: FRET competition, unlabelled Ab pre-bound to Alexa488 antigen; competitor: BHQ-labelled M4

Point of comparison: “TSH Ab 544 (Abbott Diagnostics Division) (antibody)”, relative fluorescence (relative (same pair = 1.0)) 0.92. Against it:
- Fitzgerald Cat#10-T25C TSH mouse monoclonal antibody, clone M94206 — the same, 0.92
- Seradyn anti-alpha-LH monoclonal antibody Cat#MIT0414B, clone BB3.1.3 — lower, 0.75

Biological target: Thyroid Stimulating Hormone (TSH) (UniProt P01215)
Test: FRET competition, unlabelled Ab pre-bound to Alexa488 antigen; competitor: BHQ-labelled 414B

Point of comparison: “Fitzgerald Cat#10-T25C TSH mouse monoclonal antibody, clone M94206”, relative fluorescence (relative (same pair = 1.0)) 0.97. Against it:
- Seradyn anti-alpha-LH monoclonal antibody Cat#MIT0414B, clone BB3.1.3 — higher, 1
- TSH Ab 544 (Abbott Diagnostics Division) (antibody) — lower, 0.89

Biological target: Thyroid Stimulating Hormone (TSH) (UniProt P01215)
Test: i-STAT sandwich cartridge with TSH; row Ab on capture beads; detection conjugate: 5409-ALP

Point of comparison: “Fitzgerald Cat#10-T25C TSH mouse monoclonal antibody, clone M94206”, electrochemical current (sandwich signal) 49.7 nA. Against it:
- Seradyn anti-alpha-LH monoclonal antibody Cat#MIT0414B, clone BB3.1.3 — lower, 40.3 nA
- TSH Ab 544 (Abbott Diagnostics Division) (antibody) — lower, 7.98 nA

Biological target: Thyroid Stimulating Hormone (TSH) (UniProt P01215)
Test: i-STAT sandwich cartridge with TSH; row Ab on capture beads; detection conjugate: 414B-ALP

Point of comparison: “Fitzgerald Cat#10-T25C TSH mouse monoclonal antibody, clone M94206”, electrochemical current (sandwich signal) 0.82 nA. Against it:
- TSH Ab 544 (Abbott Diagnostics Division) (antibody) — higher, 25 nA

Biological target: Follicle Stimulating Hormone (FSH) (UniProt P01215)
Test: i-STAT sandwich cartridge, 0.4 mIU/L TSH plus FSH; row Ab capture; detection Ab: 5409

Point of comparison: “Fitzgerald Cat#10-T25C TSH mouse monoclonal antibody, clone M94206”, FSH CR (%) (cross reactivity) 6.25%. Against it:
- Seradyn anti-alpha-LH monoclonal antibody Cat#MIT0414B, clone BB3.1.3 — higher, 260%

Biological target: Thyroid Stimulating Hormone (TSH) (UniProt P01215)
Test: FRET competition, unlabelled Ab pre-bound to Alexa488 antigen; competitor: BHQ-labelled ME130

Point of comparison: “Fitzgerald Cat#10-T25C TSH mouse monoclonal antibody, clone M94206”, relative fluorescence (relative (same pair = 1.0)) 0.97. Against it:
- Seradyn anti-alpha-LH monoclonal antibody Cat#MIT0414B, clone BB3.1.3 — lower, 0.86
- TSH Ab 544 (Abbott Diagnostics Division) (antibody) — lower, 0.72

Biological target: Thyroid Stimulating Hormone (TSH) (UniProt P01215)
Test: FRET competition, unlabelled Ab pre-bound to Alexa488 antigen; competitor: BHQ-labelled T25C

Point of comparison: “Fitzgerald Cat#10-T25C TSH mouse monoclonal antibody, clone M94206”, relative fluorescence (relative (same pair = 1.0)) 1. Against it:
- Seradyn anti-alpha-LH monoclonal antibody Cat#MIT0414B, clone BB3.1.3 — lower, 0.76
- TSH Ab 544 (Abbott Diagnostics Division) (antibody) — lower, 0.71

Biological target: Thyroid Stimulating Hormone (TSH) (UniProt P01215)
Test: i-STAT sandwich cartridge with TSH; row Ab on capture beads; detection conjugate: TSH Ab 544-ALP

Point of comparison: “Fitzgerald Cat#10-T25C TSH mouse monoclonal antibody, clone M94206”, electrochemical current (sandwich signal) 0.83 nA. Against it:
- Seradyn anti-alpha-LH monoclonal antibody Cat#MIT0414B, clone BB3.1.3 — higher, 10.2 nA

Biological target: Follicle Stimulating Hormone (FSH) (UniProt P01215)
Test: i-STAT sandwich cartridge, 0.4 mIU/L TSH plus FSH; row Ab capture; detection Ab: TSH Ab 544

Substance “Seradyn anti-alpha-LH monoclonal antibody Cat#MIT0414B, clone BB3.1.3” has an FSH CR (%) (cross reactivity) of 219%.

Biological target: Luteinizing Hormone (LH) (UniProt P01215)
Test: LH-detecting i-STAT cartridge (LH capture, 414B detection), polystyrene LH 5304 scavenger beads added

Substance “Biospacific LH 5304 monoclonal antibody (mus beta-LH, Catalog #5304 SP-5)” has a signal left after scavenger beads (% of signal without beads) of 4%.
